Data set [1] concerns the molecule itself. Briefly: MST; 10 nM NT-647-labelled protein titrated with the same protein unlabelled (0–90.5 μM, 1:1 dilutions); Monolith NT.115; 25 °C; 10 mM HEPES pH 7.5, 500 mM NaCl, 0.5 mM TCEP, 0.05% Tween 20; constant is of monomer to dimer.
Data set [2] concerns the molecule itself. Nature of the data set: dynamic light scattering; purified SAM domain at rising concentrations; 25 °C; DynaPro; hydrodynamic radius compared with radii estimated by HYDROPRO and GRAMM-X for monomer, dimer and tetramer; dimer from 10–20 μM, tetramer >50 μM.

“And” between values parts separate entries of the source, which are not always exact repeats. Equal entries are not always repeated.

Data on one protein can be found in PMC3795252, “SLP-76 Sterile α Motif (SAM) and Individual H5 α Helix Mediate Oligomer Formation for Microclusters and T-cell Activation*” (The Journal of Biological Chemistry, 2013).

B1: SLP-76 SAM domain (residues 1–78), recombinant, His-tagged (domain or fragment, human, UniProt Q13094 1-78, looked up)
chain: MALRNVPFRSEVLGWDPDSLADYFKKLNYKDCEKAVKKYHIDGARFLNLTENDIQKFPKLRVPILSKLSQEINKNEER
modifications: NT-647 dye coupled to primary amines on the labelled copy used in MST (one label per protein molecule); the titrated copy is unlabelled
notes: SLP-76 (LCP2), human, N-terminal sterile alpha motif (SAM) domain, residues 1-78 (helices H1-H5); Cloned into the NdeI/BamHI sites of pET-20b(+); also called SLP-76 N-terminal SAM domain; H1–5; source: E. coli BL21(DE3), pET-20b(+), soluble fraction purified by Ni2+ column
Consider B1, for which binding in data set [1] was put at a Kd of 2500 ± 900 nM. Besides, the “stoichiometry N” value in data set [2] is 2 and 4.

Broadly, the Kd is a measure of binding affinity in units of concentration. The term stoichiometry N denotes the number of molecules, sites or subunits per partner or assembly.
